The RNAGym collection of RNA variant scans (doi:10.7554/elife.80360)

B1: HDV Ribozyme (parent)
chain: GGCCGGCAUGGUCCCAGCCUCCUCGCUGGCGCCGGCUGGGCAACAUUCCGAGGGGACCGUCCCCUCGGUAAUGGCGAAUGGGACCCA

Variants of: B1
Assay: self-cleavage, relative activity (ratio to wild type); higher = more cleavage; co-transcriptional

Variant	self-cleavage
G6C G81U	0.0615
G6C G81A	0.0811
G6C G81C	0.185
G6U C18U	0.0369
G6C U23A	0.0615
G6C U23G	0
G6C U23C	0.0639
G6A A56U	0.601
G6A A56C	0.571
G6A A56G	0.848
G6C A87G	0.288
G6C U12G	0
G6C U12C	0.123
G6A G67A	0.763
G6A C14G	0.287
G6A C14A	0.237
G6A G52U	0.694
G6U G80A	0.104
G6A C24U	0.308
G6A C24A	0.283
G6C C57A	0.346
G6A G39C	0.0415
G6A G39U	0.317
G6A G17U	0.0773

Variant	self-cleavage
G6U A83C	0.0852
G6C G25C	0
G6C G25A	0.0898
G6A C57U	0.665
G6A U27C	0.268
G6A C66G	0.456
G6C G10A	0.147
G6C G10U	0.0755
G6A C44A	0.201
G6A C44U	0.457
G6U C84G	0.0923
G6A A87C	0.635
G6A C58G	0.68
G6A C58U	0.702
G6A A78U	0.0297
G6C G17A	0
G6C U69C	0.172
G6A U79G	0.227
G6A G74U	0.104
G6A G74C	0.155
G6A G74A	0.0923
G6A C61A	0.695
G6A C49U	0.58
G6A C49G	0.222

Variant	self-cleavage
G6A C49A	0.566
G6A C63A	0.407
G6C A83U	0.0692
G6C A83C	0.0875
G6C C26U	0.646
G6C C26A	0.369
G6C C26G	0.378
G6U C21U	0.122
G6U U9A	0.623
G6U U9C	0.465
G6U G34A	0.208
G6U G34U	0.0755
G6U C33A	0.0332
G6U C33U	0.217
G6U C33G	0.196
G6C C64U	0.244
G6C C64G	0.344
G6C C64A	0.594
G6U C44A	0.213
G6U C44G	0.268
G6A C26G	0.856
G6U G59A	0.544
G6U G59C	0.475
G6U G59U	0.69

Variant	self-cleavage
G6A C30U	0.432
G6A C30A	0.0421
G6A U9C	0.795
G6A U9G	0.653
G6C G11U	0
G6U G55A	0.59
G6U G55C	0.495
G6U G55U	0.942
G6C G67U	0.268
G6C G67A	0.35
G6C G67C	0.192
G6C G53A	0.233
G6U C14A	0.0692
G6U C14U	0.682
G6U C14G	0.166
G6C C48G	0.199
G6C C48A	0.443
G6C G54U	0.231
G6U C86G	0.467
G6U C86U	0.633
G6C U27C	0.0923
G6U C75A	0.0875
G6C C19U	0.0773
G6U A51C	0.656

Variant	self-cleavage
G6U A51G	0.475
G6U C32A	1.08
G6U C32U	0.787
G6A G50A	0.785
G6C G34U	0
G6C G34C	0.115
G6C G29A	0
G6C G29C	0.161
G6A U12C	0.277
G6C C75A	0.0723
G6C C75G	0.0536
G6U G81C	0.196
G6U G81U	0.154
G6U G81A	0.0997
G6A G80A	0.147
G6A G80U	0.0813
G6U G40U	0.633
G6C C21U	0.0573
G6U G28U	0.104
G6A C22U	0.4
G6A C22A	0.208
G6C C49A	0.262
G6C C15U	0.138
G6C C15A	0

Variant	self-cleavage
G6A G38U	0.0923
G6C C62G	0.151
G6C C62U	0.193
G6C U46A	0
G6C U46G	0
G6C G74A	0.0875
G6U A70U	0.46
G6U A70C	0.135
G6U G67A	0.517
G6U G67U	0.62
G6U G82C	0.17
G6C G73C	0
G6C G73A	0.0723
G6C U47C	0.453
G6C C41U	0
G6C C41G	0
G6C C41A	0
G6A C21U	0.0665
G6A C21G	0.203
G6C G82U	0.122
G6U G39C	0.151
G6U G39U	0.106
G6U G76U	0.731
G6U G76A	0.708

Variant	self-cleavage
G6A G35U	0.148
G6C C63A	0.582
G6C C63G	0.246
G6U G53U	0.643
G6U A78U	0.107
G6C G39U	0.108
G6C G39A	0.0405
G6C G39C	0.293
G6A C62U	0.728
G6A C62G	0.441
G6A G34C	0.104
G6C G52U	0.237
G6C G52A	0.369
G6A G29A	0.0959
G6C G38U	0.203
G6A U23C	0.532
G6A U23G	0.342
G6A A71G	0.762
G6A A71C	0.269
G6A A71U	0.554
G6A G73A	0.256
G6C A8U	0.346
G6A G55C	0.791
G6A U46G	0.229

Variant	self-cleavage
G6A G25C	0.0462
G6A G25A	0.121
G6A G25U	0.089
G6U U12G	0
G6U U12A	0
G6U U12C	0.0573
G6C A43C	0.0519
G6A G68U	0.691
G6A G68C	0.604
G6A G11U	0.095
G6A G11C	0.222
G6U C26A	0.397
G6C C33G	0.185
G6C C33A	0.172
G6A A16G	0.573
G6A A42C	0.0831
G6A A42U	0.283
G6A C15A	0.375
G6A C15U	0.431
G6C A51U	0.469
G6C A51G	0.222
G6C A78C	0.0831
G6C A78G	0
G6U C63G	0.268

Variant	self-cleavage
G6C U72G	0.229
G6C G68C	0.364
G6U C62U	1
G6C C66A	0.201
G6C C66U	0.256
G6C A16U	0.199
G6U G74C	0.0449
G6A G59U	0.755
G6U U23C	0.312
G6U U23A	0.466
G6U A16U	0.305
G6U G35U	0.143
G6U G35A	0.208
G6U C22U	0.136
G6U C22G	0.0489
G6U G54U	0.643
G6U G54C	0.383
G6U A56C	0.665
G6C U9G	0.208
G6C U9C	0.391
G6U C30A	0.0791
G6A G28U	0.0573
G6A G28C	0
G6U G25A	0.169

Variant	self-cleavage
G6U C13A	0.0875
G6U C13G	0
G6U C61A	0.717
G6C G80A	0.0665
G6C G80C	0.172
G6A U37G	0.128
G6U A87U	0.591
G6A C36A	0
G6A C36G	0.0811
G6A C36U	0.286
G6C U20G	0.0978
G6C U20C	0.0923
G6A C19G	0
G6U C15U	0.646
G6U C15A	0
G6A C18U	0.148
G6A C18A	0
G6A C18G	0.115
G6C U65G	0.115
G6C C32U	0.63
G6C C32G	1.1
G6C C7U	0.787
G6C C7G	0.475
G6A U65G	0.506

Variant	self-cleavage
G6A U65A	0.54
G6C G59A	0.492
G6C G59C	0.277
G6A C86A	0.536
G6C C85U	0.401
G6A C13A	0.185
G6C C30U	0.0723
G6C C30G	0.0615
G6A A70C	0.527
G6A A70U	0.399
G6C C13A	0
G6C C13G	0.151
G6C C13U	0.0831
G6A C48G	0.657
G6A C48A	0.465
G6A C48U	0.759
G6C A71U	0.138
G6C A71G	0
G6A C64U	0.739
G6A G54C	0.672
G6C U37G	0.0923
G6C C86U	0.403
G6C U60A	0.231
G6A C33G	0.0536

Variant	self-cleavage
G6U G10A	0.185
G6A G40C	0.232
G6A G40A	0.505
G6C C36U	0.175
G6C C36G	0.158
G6A A77G	0.277
G6A A77U	0.18
G6A U20A	0.0536
G6A U20C	0.158
G6C G28U	0
G6C G28A	0.0545
G6C U79C	0.0405
G6U G68A	0.483
G6U C57G	0.491
G6U C57U	0.573
G6U C36U	0.227
G6U C36G	0
G6A A51G	0.517
G6A A51C	0.522
G6A G76C	0.764
G6A C32G	0.138
G6A C32U	1.12
G6C C24U	0
G6C C24G	0.151

Variant	self-cleavage
G6C G31U	0
G6A U69G	0.689
G6U G11U	0.0361
G6U G11C	0
G6C C61G	0.222
G6C C44U	0
G6U A77G	0.302
G6U A77U	0.158
G6U C7U	0.151
G6C A77U	0.145
G6A A83U	0.324
G6U A71G	0.399
G6U A71C	0.123
G6C C58G	0.133
G6C C84G	0.138
G6C C84U	0.0573
G6C C84A	0.332
G6U C85G	0.297
G6U G38U	0.0308
G6U G38A	0.0396
G6U C24U	0.133
G6U C24A	0.0378
G6C G50A	0.225
G6C G50U	0.17

Variant	self-cleavage
G6C A56U	0.214
G6C A56G	0.453
G6A G10C	0.249
G6A A43U	0.116
G6C C22U	0.185
G6U A43U	0.212
G6U A43C	0.0489
G6U A43G	0.0665
G6U C19U	0.0489
G6C G40C	0.175
G6C G40U	0.0536
G6A G31A	0.0992
G6A G31C	0.111
G6U C64U	0.723
G6U C64A	0.415
G6C C18G	0
G6A G82U	0.188
G6U G73A	0.113
G6A C75U	0.193
G6A C75G	0.0369
G6A C75A	0.17
G6U G50C	0.776
